Laboratory results taken from patent US20260242483A1.

How the values were obtained:
[1] = molecular target: cynomolgus BTN3A as expressed on cynomolgus PBMCs (cynomolgus monkey (Macaca fascicularis)); test: flow cytometry on cynomolgus PBMCs
[2] = molecular target: human BTN3A as expressed on human cells (PBMC, Daudi, tumour cell lines, HUVEC, HEK293T WT) (human); test: flow cytometry on Daudi lymphoma cells
[3] = molecular target: human BTN3A as expressed on human cells (PBMC, Daudi, tumour cell lines, HUVEC, HEK293T WT) (human); test: flow cytometry on human PBMCs
[4] = molecular target: human BTN3A as expressed on human cells (PBMC, Daudi, tumour cell lines, HUVEC, HEK293T WT) (human); test: cell-based or functional assay

B1: Chimeric 7.2 (VH0/Vκ0) (antibody, V domains shown)
VH: QVQLQQSGAELVKPGASVKLSCKASGYIFTRYYMYWVKQRPGQGLEWIGEINPNNGGTKFNEKFKNKATLTVDKFSSTAYMQLRSLTSEDSAVYYCSREDDYDGTPFAMDYWGQGTSVTVSS
VL: DIQMNQSPSSLSASLGDTITITCHASQNINVWLSWYQQKPGNIPKLLIYKASNLHTGVPSRFTGSGSGTGFTLTISSLQPEDIATYYCQQGQTYPYTFGGGTKLEIK
Question: For B1, which EC50 [1] is on record?
Answer: 7.75 µg/mL

Question: And the EC50 [2]?
Answer: 1.44 µg/mL

Question: And the EC50 [3]?
Answer: 3.6 µg/mL

Question: And the Functional assay (AML resistant) (γδT cell-based, EC50, µg/mL) [4]?
Answer: 0.42 µg/mL

Question: And the Functional assay (AML sensitive) (γδT cell-based, EC50, µg/mL) [4]?
Answer: 0.12 µg/mL

Question: And the Functional assay (Daudi) (γδT cell-based, EC50, µg/mL) [4]?
Answer: 0.02 µg/mL
